{"source": "paper PMC4852461", "about": "“A closed conformation of the Caenorhabditis elegans separase–securin complex” (Open Biology, 2016)", "binders": {"B1": {"name": "full-length C. elegans securin (co-expressed with StrepII-tagged separase) (natural protein, UniProt Q18235 1-244, looked up)", "chain": "MEDLNFEERGSTQIPASLQQHFSAKLGRQNELEKTPSRGGLGLVVNSSKTPGGKSLQSLASACKVPPSTKKNTIPIAFECYEDETDDQIADVATIKKTEKHPCSPIDTANRCETFDSLAADIEDDMLNLEDQDVVLSEDRPYGDVIDPAESEAEALAELGVEEWDSYPPIDPASRIGDDFNYVLRTEDFAEEGDVKLEETRHRTVIADIDEVKMSKAERNELFSMLADDLDSYDLLAEEANLPL", "notes": "it may be the same construct as m2; also called securin FL; source: Sf9 insect cells, co-expressed with StrepII-separase; in soluble lysate (pull-down) and purified as complex (StrepTactin, SEC)"}}, "target": "T1, strep II-tagged full-length C. elegans separase (C. elegans, UniProt G5ED39 1-1262)", "T1 construct": "separase, Caenorhabditis elegans, full length (residues up to 1262; molecular weight 144.2 kDa); Vector pFBDM-strepII: double strepII tag with a PreScission cleavage site; also called strep II-tagged separase; source: Sf9 insect cells, co-expressed with securin, purified as complex (StrepTactin, SEC)", "T1 sequence (looked up)": "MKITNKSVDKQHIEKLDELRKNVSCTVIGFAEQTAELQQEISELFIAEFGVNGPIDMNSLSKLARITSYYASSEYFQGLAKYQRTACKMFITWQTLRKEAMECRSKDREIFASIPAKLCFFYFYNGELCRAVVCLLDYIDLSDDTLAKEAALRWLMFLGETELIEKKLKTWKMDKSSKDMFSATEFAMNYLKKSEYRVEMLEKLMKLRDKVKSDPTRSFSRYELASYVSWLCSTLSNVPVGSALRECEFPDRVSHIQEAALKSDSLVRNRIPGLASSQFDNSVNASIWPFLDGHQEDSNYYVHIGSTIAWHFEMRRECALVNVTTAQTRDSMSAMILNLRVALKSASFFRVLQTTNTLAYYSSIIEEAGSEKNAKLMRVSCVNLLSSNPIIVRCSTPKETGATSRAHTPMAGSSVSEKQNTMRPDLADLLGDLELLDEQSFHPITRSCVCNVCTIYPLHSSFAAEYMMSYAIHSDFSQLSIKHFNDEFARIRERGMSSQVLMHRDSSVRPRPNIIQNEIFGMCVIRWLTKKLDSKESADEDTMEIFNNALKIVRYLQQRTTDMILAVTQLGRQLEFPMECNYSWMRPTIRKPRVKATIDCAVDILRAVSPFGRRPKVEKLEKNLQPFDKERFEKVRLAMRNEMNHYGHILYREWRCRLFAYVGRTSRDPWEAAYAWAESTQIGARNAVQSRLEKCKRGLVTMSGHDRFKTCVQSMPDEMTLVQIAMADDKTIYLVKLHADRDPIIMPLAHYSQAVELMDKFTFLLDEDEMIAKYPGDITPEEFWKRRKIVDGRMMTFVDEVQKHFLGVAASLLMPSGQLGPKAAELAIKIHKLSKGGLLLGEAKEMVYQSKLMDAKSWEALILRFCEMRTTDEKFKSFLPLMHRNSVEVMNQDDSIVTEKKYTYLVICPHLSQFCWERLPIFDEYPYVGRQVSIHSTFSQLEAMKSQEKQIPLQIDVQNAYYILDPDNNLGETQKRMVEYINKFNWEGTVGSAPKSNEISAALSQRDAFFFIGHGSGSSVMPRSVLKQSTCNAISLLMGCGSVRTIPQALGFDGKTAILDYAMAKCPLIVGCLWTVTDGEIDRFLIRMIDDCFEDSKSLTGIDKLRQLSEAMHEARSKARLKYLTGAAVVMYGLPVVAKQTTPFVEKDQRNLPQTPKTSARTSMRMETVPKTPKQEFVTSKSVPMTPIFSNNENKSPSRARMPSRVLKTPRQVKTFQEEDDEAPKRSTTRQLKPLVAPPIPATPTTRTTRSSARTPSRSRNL", "test": "SEC-MALS; 1 mg/ml purified complex on Superose 6 10/300; 50 mM sodium phosphate, 100 mM NaCl, 20 mM NaF, 10% glycerol, 5 mM 2-mercaptoethanol, 3 mM sodium azide, pH 8.0", "settings": "both partners purified", "data": [{"binder": "B1", "values": [{"measurement": "stoichiometry N", "value": 1}]}]}
